Experimental data published in US20190064177A1, “INCORPORATING COMPETITIVE BINDING INFORMATION INTO MOLECULAR ARRAY ANALYSIS TO GENERATE FUNCTION NETWORKS OF INTERACTIONS” (ARIZONA BOARD OF REGENTS ON BEHALF OF ARIZONA STATE …, priority 2017, published 2019).

The binders below were run against Diaphorase (assay: peptide array, 1 uM labeled diaphorase, no FAD).

| Binder | fluorescence |
| --- | --- |
| RYYPAFSGGSG | 21900 |
| RWRYYWKSEGSG | 11000 |
| YRLNLKHPVGGSG | 12700 |
| RLYPQGYGGSG | 11900 |
| RAQYAQYLFGGSG | 8720 |
| PRYSGQYGGSG | 8430 |
| RNWYGGS [RNWYGGSG] | 7830 |
| YRFPNAQSPGGSG | 6240 |
| RWQYYNQKFGSG | 15700 |
| PRSFGYNNVGGSG | 6840 |

The remaining lines, values ahead:

| fluorescence | Binder |
| --- | --- |
| 6910 | PRYQNFGGGSG |
| 9740 | RYPWNKLYKFDGSG |
| 13600 | RYAYFQHLGGSG |
| 8370 | YRNAAWFSGGSG |
| 10000 | RWSFPAKGGSG |
| 14500 | RQAYLFGGSG |
| 18700 | YRPYGPVYNGGSG |
| 5780 | DLFQLVFSGSG |

Each binder was assayed against Diaphorase (assay: peptide array, 10 uM labeled diaphorase, no FAD).

| fluorescence | Binder |
| --- | --- |
| 32700 | DLFQLVFSGSG |

These binders were tested against Diaphorase (assay: peptide array, 1 uM labeled diaphorase, with FAD).

| Binder | fluorescence |
| --- | --- |
| RYYPAFSGGSG | 7540 |
| RWRYYWKSEGSG | 4090 |
| YRLNLKHPVGGSG | 4150 |
| RLYPQGYGGSG | 4540 |
| RAQYAQYLFGGSG | 3160 |
| PRYSGQYGGSG | 3230 |
| RNWYGGS [RNWYGGSG] | 2940 |
| YRFPNAQSPGGSG | 2370 |
| RWQYYNQKFGSG | 5460 |
| PRSFGYNNVGGSG | 2530 |

Continued, values first:

| fluorescence | Binder |
| --- | --- |
| 2460 | PRYQNFGGGSG |
| 3480 | RYPWNKLYKFDGSG |
| 4970 | RYAYFQHLGGSG |
| 2930 | YRNAAWFSGGSG |
| 3610 | RWSFPAKGGSG |
| 4480 | RQAYLFGGSG |
| 6760 | YRPYGPVYNGGSG |
| 9010 | DLFQLVFSGSG |

What follows are binders tested against Diaphorase (assay: peptide array, 10 uM labeled diaphorase, with FAD).

| Binder | fluorescence |
| --- | --- |
| RWRYYWKSEGSG | 51400 |
| YRLNLKHPVGGSG | 56700 |
| RLYPQGYGGSG | 61700 |
| RAQYAQYLFGGSG | 55400 |
| PRYSGQYGGSG | 45200 |
| RNWYGGS [RNWYGGSG] | 48600 |
| YRFPNAQSPGGSG | 37700 |
| PRSFGYNNVGGSG | 40500 |

More lines, now with the values ahead:

| fluorescence | Binder |
| --- | --- |
| 36700 | PRYQNFGGGSG |
| 53000 | RYPWNKLYKFDGSG |
| 64100 | RYAYFQHLGGSG |
| 43300 | YRNAAWFSGGSG |
| 51200 | RWSFPAKGGSG |
| 64000 | RQAYLFGGSG |

Each binder was assayed against Diaphorase (assay: peptide array, 1 uM diaphorase, binding without FAD / with FAD).

| Binder | noFAD/FAD |
| --- | --- |
| RYYPAFSGGSG | 2.91 |
| RWRYYWKSEGSG | 2.7 |
| YRLNLKHPVGGSG | 3.05 |
| RLYPQGYGGSG | 2.62 |
| RAQYAQYLFGGSG | 2.76 |
| PRYSGQYGGSG | 2.61 |
| RNWYGGS [RNWYGGSG] | 2.66 |
| YRFPNAQSPGGSG | 2.63 |
| RWQYYNQKFGSG | 2.88 |
| PRSFGYNNVGGSG | 2.71 |

Now from value to binder:

| noFAD/FAD | Binder |
| --- | --- |
| 2.81 | PRYQNFGGGSG |
| 2.8 | RYPWNKLYKFDGSG |
| 2.73 | RYAYFQHLGGSG |
| 2.86 | YRNAAWFSGGSG |
| 2.77 | RWSFPAKGGSG |
| 3.23 | RQAYLFGGSG |
| 2.77 | YRPYGPVYNGGSG |
| 0.641 | DLFQLVFSGSG |

What follows are binders tested against Diaphorase (assay: peptide array, 10 uM diaphorase, binding without FAD / with FAD).

| Binder | noFAD/FAD |
| --- | --- |
| RYYPAFSGGSG | 1 |
| RWRYYWKSEGSG | 1.27 |
| YRLNLKHPVGGSG | 1.16 |
| RLYPQGYGGSG | 1.06 |
| RAQYAQYLFGGSG | 1.18 |
| PRYSGQYGGSG | 1.45 |
| RNWYGGS [RNWYGGSG] | 1.35 |
| YRFPNAQSPGGSG | 1.74 |
| RWQYYNQKFGSG | 1 |
| PRSFGYNNVGGSG | 1.62 |

Further lines, results first:

| noFAD/FAD | Binder |
| --- | --- |
| 1.79 | PRYQNFGGGSG |
| 1.24 | RYPWNKLYKFDGSG |
| 1.02 | RYAYFQHLGGSG |
| 1.51 | YRNAAWFSGGSG |
| 1.28 | RWSFPAKGGSG |
| 1.02 | RQAYLFGGSG |
| 1 | YRPYGPVYNGGSG |
| 0.499 | DLFQLVFSGSG |

What follows are binders tested against Diaphorase (assay: peptide array, 10 uM labeled diaphorase, no FAD; detector saturation).

| Binder | fluorescence |
| --- | --- |
| RYYPAFSGGSG | > 65500 |
| RWRYYWKSEGSG | > 65500 |
| YRLNLKHPVGGSG | > 65500 |
| RLYPQGYGGSG | > 65500 |
| RAQYAQYLFGGSG | > 65500 |
| PRYSGQYGGSG | > 65500 |
| RNWYGGS [RNWYGGSG] | > 65500 |
| YRFPNAQSPGGSG | > 65500 |
| RWQYYNQKFGSG | > 65500 |
| PRSFGYNNVGGSG | > 65500 |

The next lines start with the values.

| fluorescence | Binder |
| --- | --- |
| > 65500 | PRYQNFGGGSG |
| > 65500 | RYPWNKLYKFDGSG |
| > 65500 | RYAYFQHLGGSG |
| > 65500 | YRNAAWFSGGSG |
| > 65500 | RWSFPAKGGSG |
| > 65500 | RQAYLFGGSG |
| > 65500 | YRPYGPVYNGGSG |

These binders were tested against Diaphorase (assay: peptide array, 10 uM labeled diaphorase, with FAD; detector saturation).

| Binder | fluorescence |
| --- | --- |
| RYYPAFSGGSG | > 65500 |
| RWQYYNQKFGSG | > 65500 |

The next lines start with the values.

| fluorescence | Binder |
| --- | --- |
| > 65500 | YRPYGPVYNGGSG |
| > 65500 | DLFQLVFSGSG |

What follows are binders tested against Diaphorase (assay: peptide array, 1 uM diaphorase, measured binding without FAD / with FAD).

| Meas. ratio (noFAD/FAD) | Binder |
| --- | --- |
| 0.7 | DANLFGYFKDGGS |
| 0.73 | AFNVWQYFEGGSG |
| 0.72 | HVYGLNLFDGSG |
| 0.68 | VLAYKLQVDGSG |
| 0.74 | AWVELEYQYVFEG |
| 0.73 | FNKVLEYKWLFEG |
| 0.75 | DYFEGQLNHLGGS |
| 0.71 | VSWVFGLGHEGGS |
